Measurements: patent US20240101716A1
Blank lines part the entries; values can stand above or below the binder they belong to.

Legend:
[1] = target: recombinant human SIRPα variant 1 protein (human) (UniProt P78324); assay: SPR Biacore 8K, antibody captured, antigen analyte
[2] = target: recombinant human SIRPα variant 1 protein (human) (UniProt P78324); assay: ELISA on coated recombinant human SIRPα v1, OD450
[3] = target: SIRPα-His protein (UniProt P78324); assay: competition ELISA: SIRPα-His binding to coated CD47-Fc in the presence of the antibody, OD450
[4] = target: SIRPα-His protein (UniProt P78324); assay: competition ELISA, SIRPα-His binding to coated CD47-Fc
[5] = target: SIRP-α expressed on cells (UniProt P78324); assay: FACS binding test on SIRP-a cell line, Geom.Mean; unit from the axis log(nm)
[6] = target: SIRPα (blocking assay of Example 11) (UniProt P78324); assay: blocking of the CD47/SIRPα interaction, ratio 665 nm/615 nm against antibody concentration

Sequence of recombinant human SIRPα variant 1 protein (human) (P78324 31-370, change not shown): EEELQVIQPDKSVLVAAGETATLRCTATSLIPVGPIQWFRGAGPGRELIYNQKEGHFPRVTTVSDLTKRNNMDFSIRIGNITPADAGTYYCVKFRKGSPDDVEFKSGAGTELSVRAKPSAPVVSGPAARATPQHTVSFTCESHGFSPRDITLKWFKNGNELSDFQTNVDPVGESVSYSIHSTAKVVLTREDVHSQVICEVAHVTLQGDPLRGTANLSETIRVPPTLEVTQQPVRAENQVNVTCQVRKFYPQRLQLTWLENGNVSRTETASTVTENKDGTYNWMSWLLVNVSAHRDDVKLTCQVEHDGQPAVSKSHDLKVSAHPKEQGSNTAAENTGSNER

IC50 [4]: 0.14 nM
B2: HSP210-02-Chi (antibody, V domains shown)
VH: EVQLQQSGAELVKPGASVKLSCTASGFNFEDTYMHWVKQRPDQGLEWIGRIDPADGDTKYNPKFQDKATITVDTSSNTAYLQLSSLTSEDTAVYYCVRGNYVNWGQGTTLTVSS
VL: QIVLIQSPAIMSASPGERVTLTCRASSSVSSSYLYWYQQKPGSSPKLWIYSTSNLASGVPARFSGSGSGTSYSLTISSMEAEDAASYFCHQWYSYPRTFGGGTKLEIK

Kd [1]: 0.999 nM
koff [1]: 0.000804 s⁻¹
kon [1]: 805000 M⁻¹ s⁻¹
EC50 [5]: 0.417 nM
IC50 (read off the curve) [6]: 0.1 nM
B3: HSP210-03-hz51 (antibody, V domains shown)
VH: QVQLVQSGAEVKKPGSSVKVSCKASGYTFTSNYIHWVRQAPGQGLEWMGWIYPGDADTNYNQKFNGRVTLTADKSTSTAYMELSSLRSEDTAVYYCAINYGGIWFAYWGQGTLVTVSS
VL: DIQMTQSPSSLSASVGDRVTITCQASQDIGNKLIWYQQKPGKAPKLLIYYVTNLPGGVPSRFSGSGSGTDFTLTISSLQPEDFATYYCLQYKQNPLTFGQGTKLEIK

IC50 [4]: 0.16 nM
B4: HSP210-03-hz22 (antibody, V domains shown)
VH: QVQLVQSGAEVKKPGSSVKVSCKASGYTFTSNYIHWVRQAPGQGLEWMGWIYPGDGDTNYNQKFNGRVTITADKSTSTAYMELSSLRSEDTAVYYCAINYGGIWFAYWGQGTLVTVSS
VL: DIQMTQSPSSLSASVGDRVTITCQASQDIGNKLIWFQQKPGKAPKLLIHYVTNLPGGVPSRFSGSRSGSDYTLTISSLQPEDFATYYCLQYKQNPLTFGQGTKLEIK

IC50 [4]: 0.13 nM
B5: HSP210-03-hz42 (antibody, V domains shown)
VH: QVQLVQSGAEVKKPGSSVKVSCKASGYTFTSNYIHWVRQAPGQGLEWMGWIYPGEGDTNYNQKFNGRVTLTADKSTSTAYMELSSLRSEDTAVYYCAINYGGIWFAYWGQGTLVTVSS
VL: DIQMTQSPSSLSASVGDRVTITCQASQDIGNKLIWFQQKPGKAPKLLIHYVTNLPGGVPSRFSGSRSGSDYTLTISSLQPEDFATYYCLQYKQNPLTFGQGTKLEIK

IC50 [4]: 0.13 nM
B7: HSP210-03-hz52 (antibody, V domains shown)
VH: QVQLVQSGAEVKKPGSSVKVSCKASGYTFTSNYIHWVRQAPGQGLEWMGWIYPGDADTNYNQKFNGRVTLTADKSTSTAYMELSSLRSEDTAVYYCAINYGGIWFAYWGQGTLVTVSS
VL: DIQMTQSPSSLSASVGDRVTITCQASQDIGNKLIWFQQKPGKAPKLLIHYVTNLPGGVPSRFSGSRSGSDYTLTISSLQPEDFATYYCLQYKQNPLTFGQGTKLEIK

IC50 [4]: 0.16 nM
B12: HSP210-01-hz62 (antibody, V domains shown)
VH: QVQLQESGPGLVKPSETLSLTCTFSGFSLNTYDIGMGWIRQPPGKGLEWIAHIWWNDREYYNPALQSRVTISKDTSKTQVSLKLSSVTAADTAVYYCVRIDYFGSGQAWFTYWGQGTLVTVSS
VL: EIVLTQSPGTLSLSPGERATLSCSSSSTISSTYLHWYQQKPGQAPRLLISGTSNLASGIPDRFSGSGSGTDYTLTISRLEPEDVAVYYCQQGSRIPFTFGQGTKLEIK

IC50 [4]: 0.21 nM
B13: HSP210-01-hz61 (antibody, V domains shown)
VH: QVQLQESGPGLVKPSETLSLTCTFSGFSLNTYDIGMGWIRQPPGKGLEWIAHIWWNDREYYNPALQSRVTISKDTSKTQVSLKLSSVTAADTAVYYCVRIDYFGSGQAWFTYWGQGTLVTVSS
VL: EIVLTQSPGTLSLSPGERATLSCSSSSTISSTYLHWYQQKPGQAPRLLIYGTSNLASGIPDRFSGSGSGTDFTLTISRLEPEDFAVYYCQQGSRIPFTFGQGTKLEIK

IC50 [4]: 0.16 nM
B14: HSP210-01-hz32 (antibody, V domains shown)
VH: QVQLQESGPGLVKPSETLSLTCTFSGFSLNTYDIGMGWIRQPPGKGLEWIAHIWWNDREYYNSALQSRVTISKDTSKTQVSLKLSSVTAADTAVYYCVRIDYFGSGQAWFTYWGQGTLVTVSS
VL: EIVLTQSPGTLSLSPGERATLSCSSSSTISSTYLHWYQQKPGQAPRLLISGTSNLASGIPDRFSGSGSGTDYTLTISRLEPEDVAVYYCQQGSRIPFTFGQGTKLEIK

Second part, the binder before the results:

B1: 248G3F6 (antibody, V domains shown)
VH: EVQLQQSGAELVKPGASVKLSCTASGFNFEDTYMHWVKQRPDQGLEWIGRIDPADGDTKYNPKFQDKATITVDTSSNTAYLQLSSLTSEDTAVYYCVRGNYVNWGQGTTLTVSS
VL: QIVLIQSPAIMSASPGERVTLTCRASSSVSSSYLYWYQQKPGSSPKLWIYSTSNLASGVPARFSGSGSGTSYSLTISSMEAEDAASYFCHQWYSYPRTFGGGTKLEIK
Kd [1]: 2 nM
koff [1]: 0.000374 s⁻¹
kon [1]: 187000 M⁻¹ s⁻¹
EC50 [2]: 0.0182 mg/L
IC50 [3]: 0.356 mg/L

B6: HSP210-03-hz32 (antibody, V domains shown)
VH: QVQLVQSGAEVKKPGSSVKVSCKASGYTFTSNYIHWVRQAPGQGLEWMGWIYPGDGDTNYNQKFNGRVTLTADKSTSTAYMELSSLRSEDTAVYYCAINYGGIWFAYWGQGTLVTVSS
VL: DIQMTQSPSSLSASVGDRVTITCQASQDIGNKLIWFQQKPGKAPKLLIHYVTNLPGGVPSRFSGSRSGSDYTLTISSLQPEDFATYYCLQYKQNPLTFGQGTKLEIK
IC50 [4]: 0.145 nM

B8: 300A6A6 (antibody, V domains shown)
VH: QVQLQQSGTELVKPGSSVKISCKASGYTFTSNYIHWIRQQPGNGLEWIGWIYPGDGDTNYNQKFNGKATLTADKSSSTAYMQLSSLTSEDYAVYFCAINYGGIWFAYWGQGTLVTVSS
VL: DIQMTQSPSSMSASLGDRVTITCQASQDIGNKLIWFQQKPGKSPRLMIHYVTNLPGGVPLRFSGSRSGSDYSLTISSLESEDMADYYCLQYKQNPLTFGSGTKLEIK
Kd [1]: 1.13 nM
koff [1]: 0.000148 s⁻¹
kon [1]: 131000 M⁻¹ s⁻¹
EC50 [2]: 0.0121 mg/L
IC50 [3]: 0.383 mg/L

B9: HSP210-03-Chi (antibody, V domains shown)
VH: QVQLQQSGTELVKPGSSVKISCKASGYTFTSNYIHWIRQQPGNGLEWIGWIYPGDGDTNYNQKFNGKATLTADKSSSTAYMQLSSLTSEDYAVYFCAINYGGIWFAYWGQGTLVTVSS
VL: DIQMTQSPSSMSASLGDRVTITCQASQDIGNKLIWFQQKPGKSPRLMIHYVTNLPGGVPLRFSGSRSGSDYSLTISSLESEDMADYYCLQYKQNPLTFGSGTKLEIK
IC50 [4]: 0.14 nM

B10: HSP210-01-hz22 (antibody, V domains shown)
VH: QVQLQESGPGLVKPSETLSLTCTFSGFSLNTYDIGMGWIRQPPGKGLEWIGHIWWNDREYYNSALQSRVTISKDTSKTQVSLKLSSVTAADTAVYYCVRIDYFGSGQAWFTYWGQGTLVTVSS
VL: EIVLTQSPGTLSLSPGERATLSCSSSSTISSTYLHWYQQKPGQAPRLLISGTSNLASGIPDRFSGSGSGTDYTLTISRLEPEDVAVYYCQQGSRIPFTFGQGTKLEIK
IC50 [4]: 0.21 nM

B11: HSP210-01-hz52 (antibody, V domains shown)
VH: QVQLQESGPGLVKPSETLSLTCTFSGFSLNTYDIGMGWIRQPPGKGLEWIAHIWWNDREYYSSALQSRVTISKDTSKTQVSLKLSSVTAADTAVYYCVRIDYFGSGQAWFTYWGQGTLVTVSS
VL: EIVLTQSPGTLSLSPGERATLSCSSSSTISSTYLHWYQQKPGQAPRLLISGTSNLASGIPDRFSGSGSGTDYTLTISRLEPEDVAVYYCQQGSRIPFTFGQGTKLEIK
IC50 [4]: 0.23 nM

B15: HSP210-02-hz52 (antibody, V domains shown)
VH: QVQLVQSGAEVKKPGASVKVSCKASGFNFEDTYMHWVRQAPGQGLEWMGRIDPADADTKYNPKFQDRVTITVDTSTNTAYMELSSLRSEDTAVYYCVRGNYVNWGQGTTVTVSS
VL: EIVLTQSPGTLSLSPGERATLSCRASSSVSSSYLYWYQQKPGQAPRLLIYSTSNLASGIPDRFSGSGSGTDYTLTISRLEPEDAAVYFCHQWYSYPRTFGGGTKVEIK
Kd [1]: 0.423 nM
koff [1]: 0.000298 s⁻¹
kon [1]: 704000 M⁻¹ s⁻¹
IC50 [4]: 0.11 nM
EC50 [5]: 0.54 nM
IC50 (read off the curve) [6]: 0.1 nM

B16: HSP210-02-hz42 (antibody, V domains shown)
VH: QVQLVQSGAEVKKPGASVKVSCKASGFNFEDTYMHWVRQAPGQGLEWMGRIDPAEGDTKYNPKFQDRVTITVDTSTNTAYMELSSLRSEDTAVYYCVRGNYVNWGQGTTVTVSS
VL: EIVLTQSPGTLSLSPGERATLSCRASSSVSSSYLYWYQQKPGQAPRLLIYSTSNLASGIPDRFSGSGSGTDYTLTISRLEPEDAAVYFCHQWYSYPRTFGGGTKVEIK
IC50 [4]: 0.12 nM

B17: HSP210-02-hz22 (antibody, V domains shown)
VH: QVQLVQSGAEVKKPGASVKVSCKASGFNFEDTYMHWVRQAPGQGLEWMGRIDPADGDTKYNPKFQDRVTMTVDTSTNTAYMELSSLRSEDTAVYYCVRGNYVNWGQGTTVTVSS
VL: EIVLTQSPGTLSLSPGERATLSCRASSSVSSSYLYWYQQKPGQAPRLLIYSTSNLASGIPDRFSGSGSGTDYTLTISRLEPEDAAVYFCHQWYSYPRTFGGGTKVEIK
IC50 [4]: 0.092 nM

B18: HSP210-02-hz32 (antibody, V domains shown)
VH: QVQLVQSGAEVKKPGASVKVSCKASGFNFEDTYMHWVRQAPGQGLEWMGRIDPADGDTKYNPKFQDRVTITVDTSTNTAYMELSSLRSEDTAVYYCVRGNYVNWGQGTTVTVSS
VL: EIVLTQSPGTLSLSPGERATLSCRASSSVSSSYLYWYQQKPGQAPRLLIYSTSNLASGIPDRFSGSGSGTDYTLTISRLEPEDAAVYFCHQWYSYPRTFGGGTKVEIK
IC50 [4]: 0.11 nM
